In paper PMC2683190 (Neurobiology of disease, 2009):

Columns and labels:
[1] = molecular target: T1, soluble gp130 (glycoprotein 130) (UniProt P40189 23-619); experiment: SPR
T1 sequence (looked up): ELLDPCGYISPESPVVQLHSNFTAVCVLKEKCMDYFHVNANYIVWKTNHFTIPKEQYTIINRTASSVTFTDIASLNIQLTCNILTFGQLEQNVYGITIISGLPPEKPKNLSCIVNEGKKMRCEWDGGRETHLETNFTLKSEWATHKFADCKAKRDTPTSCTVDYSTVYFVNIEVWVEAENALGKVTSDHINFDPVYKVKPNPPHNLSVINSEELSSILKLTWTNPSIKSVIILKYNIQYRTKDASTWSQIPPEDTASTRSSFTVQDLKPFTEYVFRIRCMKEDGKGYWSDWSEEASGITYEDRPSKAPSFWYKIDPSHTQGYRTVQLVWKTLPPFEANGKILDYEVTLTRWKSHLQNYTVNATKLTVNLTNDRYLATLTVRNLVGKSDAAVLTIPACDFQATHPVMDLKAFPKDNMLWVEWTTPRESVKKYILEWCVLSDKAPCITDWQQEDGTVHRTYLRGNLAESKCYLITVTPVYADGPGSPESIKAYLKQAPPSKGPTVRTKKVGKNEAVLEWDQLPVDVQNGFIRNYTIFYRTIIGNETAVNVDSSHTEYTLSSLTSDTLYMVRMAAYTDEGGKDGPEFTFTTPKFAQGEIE

[2] = molecular target: T2, soluble LIFR (leukemia inhibitory factor receptor) (UniProt P42702 45-833); experiment: SPR
T2 sequence (looked up): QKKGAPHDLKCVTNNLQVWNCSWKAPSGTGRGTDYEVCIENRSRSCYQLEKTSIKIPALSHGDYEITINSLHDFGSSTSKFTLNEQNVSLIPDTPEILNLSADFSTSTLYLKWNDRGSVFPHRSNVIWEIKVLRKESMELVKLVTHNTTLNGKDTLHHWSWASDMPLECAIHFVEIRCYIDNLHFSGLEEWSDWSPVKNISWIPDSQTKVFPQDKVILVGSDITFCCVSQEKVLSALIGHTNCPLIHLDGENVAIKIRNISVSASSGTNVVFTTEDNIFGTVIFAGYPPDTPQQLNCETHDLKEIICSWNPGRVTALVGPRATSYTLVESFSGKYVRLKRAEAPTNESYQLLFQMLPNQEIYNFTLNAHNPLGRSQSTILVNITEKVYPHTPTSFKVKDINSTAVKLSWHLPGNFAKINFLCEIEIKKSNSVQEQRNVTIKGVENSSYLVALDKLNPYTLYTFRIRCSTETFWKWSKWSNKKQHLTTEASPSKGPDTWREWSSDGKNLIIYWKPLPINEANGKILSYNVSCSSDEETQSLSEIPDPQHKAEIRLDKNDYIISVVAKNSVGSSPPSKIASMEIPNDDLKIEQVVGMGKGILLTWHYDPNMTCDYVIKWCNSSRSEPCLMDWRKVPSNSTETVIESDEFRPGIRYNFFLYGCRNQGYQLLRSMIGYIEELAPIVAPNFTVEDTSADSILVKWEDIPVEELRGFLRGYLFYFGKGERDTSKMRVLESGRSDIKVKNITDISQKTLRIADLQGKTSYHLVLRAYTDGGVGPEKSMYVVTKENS

Kd [1]: 9.02 nM
koff [1]: 0.0017 s⁻¹
kon [1]: 188000 M⁻¹ s⁻¹
Kd [2]: 2.93 nM
koff [2]: 0.00107 s⁻¹
kon [2]: 366000 M⁻¹ s⁻¹
B1: GST-LIF (human leukemia inhibitory factor as glutathione-S-transferase fusion protein) (ligand)
chain: not shown
